Reference: patent publication US20240309103A1 (Regeneron, published 2024)

T1: mNPR1-mFc (mouse)
T1 construct: also called mouse NPR1 extracellular domain expressed with a C-terminal mouse IgG2a
T1 chain: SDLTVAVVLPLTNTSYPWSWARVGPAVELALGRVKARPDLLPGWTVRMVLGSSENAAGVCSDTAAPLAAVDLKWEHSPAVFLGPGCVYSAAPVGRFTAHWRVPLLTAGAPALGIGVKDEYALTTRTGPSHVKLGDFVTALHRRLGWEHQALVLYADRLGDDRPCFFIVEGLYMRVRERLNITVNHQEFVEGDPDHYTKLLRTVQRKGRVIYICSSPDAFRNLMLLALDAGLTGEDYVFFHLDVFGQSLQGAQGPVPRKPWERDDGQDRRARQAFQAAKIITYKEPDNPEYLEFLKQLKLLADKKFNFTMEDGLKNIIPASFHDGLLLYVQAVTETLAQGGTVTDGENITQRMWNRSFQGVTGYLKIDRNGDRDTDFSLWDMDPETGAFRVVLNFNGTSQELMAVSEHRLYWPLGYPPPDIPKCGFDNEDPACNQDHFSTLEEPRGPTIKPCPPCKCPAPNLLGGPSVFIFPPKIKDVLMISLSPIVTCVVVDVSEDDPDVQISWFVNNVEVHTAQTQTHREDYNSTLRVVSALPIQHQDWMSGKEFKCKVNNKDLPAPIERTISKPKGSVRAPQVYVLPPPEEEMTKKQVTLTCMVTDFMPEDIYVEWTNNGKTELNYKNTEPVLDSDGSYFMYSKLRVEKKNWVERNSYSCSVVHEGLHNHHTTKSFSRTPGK

T2: human NPR1 on HEK293/hNPR1.myc.DDK cells (0 hANP) (human, UniProt P16066 33-1061)
T2 construct: Full-length receptor on engineered HEK293 cells, no ANP added; also called HEK293/hNPR1.myc.DKK
T2 sequence: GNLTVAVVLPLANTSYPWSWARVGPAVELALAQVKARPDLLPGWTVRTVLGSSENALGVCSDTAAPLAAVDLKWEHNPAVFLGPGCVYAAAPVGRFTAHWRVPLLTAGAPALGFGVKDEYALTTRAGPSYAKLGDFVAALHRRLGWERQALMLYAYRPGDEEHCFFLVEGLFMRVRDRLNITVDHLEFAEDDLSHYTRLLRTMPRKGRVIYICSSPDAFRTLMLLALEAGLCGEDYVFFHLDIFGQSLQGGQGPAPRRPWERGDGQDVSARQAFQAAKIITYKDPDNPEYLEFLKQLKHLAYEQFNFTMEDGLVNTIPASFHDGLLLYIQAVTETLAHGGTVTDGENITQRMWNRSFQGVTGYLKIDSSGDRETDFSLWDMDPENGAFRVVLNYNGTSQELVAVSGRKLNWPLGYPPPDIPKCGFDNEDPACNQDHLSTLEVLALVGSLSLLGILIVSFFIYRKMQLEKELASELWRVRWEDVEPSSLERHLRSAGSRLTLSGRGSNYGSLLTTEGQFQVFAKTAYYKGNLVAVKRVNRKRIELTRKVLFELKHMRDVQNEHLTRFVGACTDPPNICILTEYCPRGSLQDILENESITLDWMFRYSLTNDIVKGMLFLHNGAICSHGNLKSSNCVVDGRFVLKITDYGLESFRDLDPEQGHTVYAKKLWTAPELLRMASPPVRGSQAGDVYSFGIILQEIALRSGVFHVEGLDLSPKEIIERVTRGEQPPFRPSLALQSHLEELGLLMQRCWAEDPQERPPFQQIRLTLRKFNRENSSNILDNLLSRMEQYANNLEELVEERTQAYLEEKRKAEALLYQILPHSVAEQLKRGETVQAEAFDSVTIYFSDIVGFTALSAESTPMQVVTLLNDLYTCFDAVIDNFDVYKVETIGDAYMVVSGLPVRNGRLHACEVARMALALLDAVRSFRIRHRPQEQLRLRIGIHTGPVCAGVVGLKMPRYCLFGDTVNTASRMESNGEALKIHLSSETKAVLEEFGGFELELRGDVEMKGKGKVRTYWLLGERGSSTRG

T3: human NPR1 on HEK293/hNPR1.myc.DDK cells with 10 nM hANP (NPR1-ANP complex) (human, UniProt P01160 124-151)
T3 construct: also called NPR1-ANP Complex on the Cell Surface
T3 sequence: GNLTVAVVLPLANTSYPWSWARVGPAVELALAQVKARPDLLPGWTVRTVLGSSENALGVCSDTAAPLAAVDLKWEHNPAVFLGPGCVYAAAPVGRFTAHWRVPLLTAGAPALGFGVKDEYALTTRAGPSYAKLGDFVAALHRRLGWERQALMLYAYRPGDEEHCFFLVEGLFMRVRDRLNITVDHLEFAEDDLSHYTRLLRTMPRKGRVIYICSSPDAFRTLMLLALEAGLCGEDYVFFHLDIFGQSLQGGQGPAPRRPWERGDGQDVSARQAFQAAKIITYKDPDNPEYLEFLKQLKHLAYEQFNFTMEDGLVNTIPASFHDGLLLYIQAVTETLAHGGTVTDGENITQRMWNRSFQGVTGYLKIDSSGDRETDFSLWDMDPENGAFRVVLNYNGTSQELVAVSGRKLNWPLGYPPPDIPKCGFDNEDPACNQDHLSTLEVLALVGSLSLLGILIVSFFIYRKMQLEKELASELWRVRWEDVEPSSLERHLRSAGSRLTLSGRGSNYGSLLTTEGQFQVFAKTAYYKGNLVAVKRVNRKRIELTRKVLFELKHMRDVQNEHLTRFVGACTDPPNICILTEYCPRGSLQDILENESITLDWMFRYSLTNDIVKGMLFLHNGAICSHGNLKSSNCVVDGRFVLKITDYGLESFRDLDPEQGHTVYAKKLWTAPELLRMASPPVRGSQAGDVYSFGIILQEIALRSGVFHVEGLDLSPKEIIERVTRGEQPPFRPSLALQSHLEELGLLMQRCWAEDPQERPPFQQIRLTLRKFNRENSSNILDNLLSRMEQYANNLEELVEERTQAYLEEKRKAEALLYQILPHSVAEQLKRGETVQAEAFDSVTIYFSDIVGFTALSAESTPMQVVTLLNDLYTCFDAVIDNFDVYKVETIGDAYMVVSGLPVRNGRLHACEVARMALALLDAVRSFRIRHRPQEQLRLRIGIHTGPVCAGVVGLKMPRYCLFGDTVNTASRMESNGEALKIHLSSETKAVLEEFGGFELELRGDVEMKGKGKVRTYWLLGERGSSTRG
T3 sequence (peptide): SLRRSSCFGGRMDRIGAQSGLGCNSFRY


Assays:
[1] = target: T1, mNPR1-mFc; experiment: SPR Biacore, mAb captured by anti-human Fc, 25C
Procedure: (§1) Equilibrium dissociation constant (KD) for different NPR1 reagents binding to purified anti-NPR1 monoclonal antibodies (mAbs) were determined using a real-time surface plasmon resonance based Biacore 4000 biosensor. All binding studies were performed in 10 mM HEPES, 150 mM NaCl, 3 mM EDTA, and 0.05% v/v Surfactant Tween-20, pH 7.4 (HBS-ET) running buffer at 25° C. and 37° C. The Biacore CM5 sensor chip surface was first derivatized by amine coupling with either mouse anti-human Fc specific mAb (GE Healthcare, #BR100839) or goat anti-human Fcy specific polyclonal antibody (Jackson ImmunoResearch Laboratories, #BR-1008-39) to capture anti-NPR1 mAbs.

[2] = target: T1, mNPR1-mFc; experiment: SPR Biacore, mAb captured by anti-human Fc, 37C
Procedure: as §1

[3] = target: T4, mfNPR1-mFc:hBNP complex (monkey; human, UniProt P16860 103-134); experiment: SPR Biacore, mAb captured by anti-human Fc, 37C
T4 construct: Receptor-Fc pre-complexed with 10-fold hBNP
Procedure: as §1

[4] = target: T2, human NPR1 on HEK293/hNPR1.myc.DDK …; experiment: ECL cell binding (MSD), HEK293/hNPR1.myc.DDK cells, 0 hANP
Procedure: Experiments were carried out according to the following procedure. Cells from lines described above were rinsed once in 1×PBS buffer without Ca²⁺/Mg²⁺ nd incubated for 10 minutes at 37° C. with Enzyme Free Cell Dissociation Solution to detach cells from a flask. All cells were washed once with 1×PBS with Ca²⁺/Mg²⁺ and counted with a Cellometer™ Auto T4 cell counter (Nexcelom Bioscience). Approximately 2.0×10⁴ HEK293/hNPR1.myc.DDK or HEK293 cells were seeded separately onto 96-well carbon electrode plates (MULTI-ARRAY high bind plate, Meso Scale Discovery (MSD, Rockville, MD)) and incubated for 1 hour (h) at 37° C. Nonspecific binding sites were blocked by 2% BSA (w/v) in 1×PBS with Ca²⁺/Mg²⁺for 1 h at room temperature (RT). HEK293/hNPR1.myc. […] The plate-bound antibodies were detected with SULFO-TAG™-conjugated goat polyclonal anti-human IgG antibody specific for heavy and light chains (Jackson Immunoresearch, West Grove, PA) for 1 h, RT.
After washes, plates were developed with Read Buffer (MSD, Rockville, MD) according to manufacturer's recommended procedure and luminescent signals were recorded with a SECTOR Imager 600 (MSD, Rockville, MD). Luminescence intensity, measured in relative light units (RLU), was recorded to indicate the binding intensity of each antibody at the range of concentrations.

[5] = target: T2, human NPR1 on HEK293/hNPR1.myc.DDK …; experiment: ECL cell binding (MSD), 0 hANP
[6] = target: T2, human NPR1 on HEK293/hNPR1.myc.DDK …; experiment: cell-based or functional assay
[7] = target: T3, human NPR1 on HEK293/hNPR1.myc.DDK …; experiment: ECL cell binding (MSD), +10 nM hANP
[8] = target: the molecule itself; experiment: SEC-MALS
Procedure: After overnight incubation in PBS at 4° C., the complexes were injected into the SEC-MALS system, which consists of a Superdex 200 Increase 10/300 GI column on an ÄKTA micro system (GE Healthcare Life Sciences), followed by a miniDAWN Treos and Optilab T-rEX (Wyatt Technology Corporation). […] Size exclusion chromatography data was evaluated using Unicorn (Version 5.20 General Electric Company), and the MALS data was evaluated using ASTRA (Version 7.0.0.69 Wyatt Technology).

Row | Binder | 100 nM Ag Bound (RU) [1] | 100 nM Ag Bound (RU) [2] | binding result [2] | 100 nM Ag Bound (RU) [3] | Kd [3] | koff [3] | kon [3] | t½ [3] | binding result [4] | Ratio at 3.7 nM Ab concentration of Cell Binding Signal (RLU) to HEK293/hNPR1.myc.DKK relative to parental HEK293 [5] | % Activation (vs ANP max), Expt 1 [6] | % Activation (vs. ANP max), Expt II [6] | EC50 (nM), calcium flux, Expt 1 [6] | EC50 (nM), calcium flux, Expt II [6] | EC50 [7] | Ratio at 3.7 nM Ab concentration of Cell Binding Signal (RLU) to HEK293/hNPR1.myc.DKK relative to parental HEK293 [7] | binding result [8]
1 | mAb25545 (antibody, human IgG4, V domains shown) VH: QVQLVESGGGLVKPGGSLRLSCAASGFTFSDYHLSWIRQAPGKGLEWVSYIRSSGRTIDYAASVKGRFTISRDNAKNSLYLQMNSLRVEDTAVYYCARENWIVLKVYAGIVGAPLDQWGQGTLVTVSS VL: not shown | 0 RU | 1 RU | no binding (tested: 100 nM) | 82 RU | 2.09 nM | 7.77e-05 s⁻¹ | 37100 M⁻¹ s⁻¹ | 149 min | no binding (tested: ratio below 3 at 3.7 nM Ab) | 1 ratio | 123% | 123% | 188 nM | 74.1 nM | 1.9 nM | 79 ratio | 
2 | mAb22805 (antibody, human IgG4, V domains shown) VH: QVQLVESGGGVVQPGRSLRLSCAASGFTFSTYGMHWVRQAPGKGLEWVALIWNDGSNKYYADSVKGRFTISRDNSKNTLDLQMNSLRAEDTAVYYCARLNTRITGTTNLDYWGQGTLVTVSS VL: DIQMTQSPSSLSASVGDRVTVSCRASQSIANYLNWYQQKPGKAPNLLIYGAYTLQSGVPSRFRGSGSGTDFTLTISSLQPEDFATYYCQQTYSTPPITFGQGTRLEIK | 0 RU | 0 RU | no binding (tested: 100 nM) | 150 RU | 3.39 nM | 0.000202 s⁻¹ | 59600 M⁻¹ s⁻¹ | 57.2 min | no binding (tested: ratio below 3 at 3.7 nM Ab) | 1 ratio | 91.6% | 119% | 239 nM | 112 nM | 0.65 nM | 222 ratio | 
3 | mAb22809 (antibody, human IgG4, V domains shown) VH: QLQLRESGPGLVKPSETLSLTCTVSGGSINDNSFFWDWIRQTPGRGLEWIGNIFFDGNTYYTPSLKSRVIISVDMSQNQFSLRLTSVTAADTALYYCARHKRSMTAWGFFDYWGQGTLVTVSS VL: DIQMTQSPSSLSASVGDRVTITCRASKRINTYLNWYQQKPGKAPKVLIYSASNLQSGVPSRFSGSGSGTDFTLTINSLQPEDFATYFCQQSFSAPPITFGQGTRLEIK | 0 RU | 0 RU | no binding (tested: 100 nM) | 99 RU | 4.29 nM | 0.000229 s⁻¹ | 53400 M⁻¹ s⁻¹ | 50.5 min | no binding (tested: ratio below 3 at 3.7 nM Ab) | 2 ratio | 86.7% |  | 270 nM |  | 0.48 nM | 166 ratio | 
4 | human NPR1 extracellular domain expressed with a C-terminal myc-myc-hexahistidine (hNPR1-MMH) (receptor, also called hNPR.mmh; monomeric human NPR1) GNLTVAVVLPLANTSYPWSWARVGPAVELALAQVKARPDLLPGWTVRTVLGSSENALGVCSDTAAPLAAVDLKWEHNPAVFLGPGCVYAAAPVGRFTAHWRVPLLTAGAPALGFGVKDEYALTTRAGPSYAKLGDFVAALHRRLGWERQALMLYAYRPGDEEHCFFLVEGLFMRVRDRLNITVDHLEFAEDDLSHYTRLLRTMPRKGRVIYICSSPDAFRTLMLLALEAGLCGEDYVFFHLDIFGQSLQGGQGPAPRRPWERGDGQDVSARQAFQAAKIITYKDPDNPEYLEFLKQLKHLAYEQFNFTMEDGLVNTIPASFHDGLLLYIQAVTETLAHGGTVTDGENITQRMWNRSFQGVTGYLKIDSSGDRETDFSLWDMDPENGAFRVVLNYNGTSQELVAVSGRKLNWPLGYPPPDIPKCGFDNEDPACNQDHLSTLEEQKLISEEDLGGEQKLISEEDLHHHHHH |  |  |  |  |  |  |  |  |  |  |  |  |  |  |  |  | binds
